We go through 1 molecule from publication doi:10.1101/2021.02.17.431492 (bioRxiv, 2021).

The target in the assay is monomeric SARS-CoV-2 receptor binding domain (RBD) (SARS-CoV-2, UniProt P0DTC2). Kind of assay: ELISA. Background: An ELISA detects its analyte on a solid surface through an enzyme-linked reagent.

B1: DH1041 (ACE2 binding site-targeting RBD neutralizing antibody) (antibody, V domains shown)
VH: EVQLVESGGGLVQPGGSLRLSCAASGVTFSSYWMSWVRQAPGKGLEWVANIRQDGSEKYSVDSVKGRFTISRDNAKNSLYLQMNSLRAEDTAVYYCARARRADNSGYYGFHFDCWGQGTLVTVSS
VL: QSVLTQPPSVSGAPGQRVTISCTGSSSNIGAGYDVHWYQQLPGTAPKLLIYGNNNRPSGVPDRFSDSKSGTSASLAITRLQAEDEADYYCQSYDSSLSGWVFGGGTKLTVL
On to B1, for which the binding result is reported as “binds”.
